{"source": "patent US20220098591", "about": "“STEM-LOOP COMPOSITIONS AND METHODS FOR INHIBITING VASCULAR ENDOTHELIAL GROWTN FACTOR” (DRIVE THERAPEUTICS LLC, published 2022)", "binders": {"B1": {"name": "Aptamer 26 (ssRNA)", "RNA": "UAGGCCGCCUCCGCGCGGAGGGGUUUCAUUAUCCCGUUUGGCGGCUUU", "modifications": "all G 2'-F; all A,C,U 2'-OMe; 5' C6NH2; 3' idT (Tables 14-16 print it without the terminal U residues)"}, "B2": {"name": "Aptamer 141 (ssRNA)", "RNA": "AGGCCGACCCGCGCGGAGGGGUUUCAUUAUCCCGUUUGUCGGCUU", "modifications": "all G 2'-F; A,C,U 2'-OMe; Sp3 joins the two parts (position 9); 5' C6NH2; 3' idT"}}, "key": {"VEGF-A165 [1]": {"target": "T1, VEGF-A165 (Homo sapiens)", "T1 chain": "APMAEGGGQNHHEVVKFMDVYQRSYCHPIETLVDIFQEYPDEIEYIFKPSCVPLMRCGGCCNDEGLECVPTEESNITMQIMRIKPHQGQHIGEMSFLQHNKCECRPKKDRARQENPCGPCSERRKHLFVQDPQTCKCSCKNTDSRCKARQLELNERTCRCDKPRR", "assay": "direct TR-FRET, MOPS pH 7.4, 1 mM CaCl2, 1 mM MgCl2, RT", "conditions": "tags: glycan-biotinylated for SPR/FRET/AlphaLISA; Acro BioSystems, R&D Systems; chain copies: 2 (inferred); stem-loop"}, "VEGF-A165 [2]": {"target": "T1, VEGF-A165", "assay": "competition; AlphaLISA, blocks KDR binding", "conditions": "tags: glycan-biotinylated for SPR/FRET/AlphaLISA; Acro BioSystems, R&D Systems; chain copies: 2 (inferred); stem-loop", "description": "Briefly, the aptamers were heated at 90° C. for 3 minutes and allowed to cool to room temperature for a minimum of 10 minutes. Aptamers and anti-VEGF-A antibody were serial diluted in a polypropylene plate and 5 μL was transferred to a white low volume 384 well Optiplate (Perkin Elmer). A solution of VEGF-A₁₆₅ (Acro BioSystems) or VEGF-A₁₂₁ (Acro BioSystems) that was glycan biotinylated was prepared and added to the assay plate containing aptamers or anti-VEGF-A antibody to yield a final assay concentration of 2 nM. A mixture of human recombinant his-tagged KDR, (Sino Biological), AlphaLISA® nickel chelate acceptor beads (Perkin Elmer), and AlphaScreen® streptavidin donor beads (Perkin Elmer) was then prepared and 10 μL was added to the assay plate. The final concentrations of KDR and beads were 5 nM and 5 ug/mL, respectively. The assay plate was sealed and incubated in the dark for approximately 2 hours, after which it was read on a Biotek CYTATION™ 5 plate reader using the Alpha 384 well optical cube. The low signal control was determined using excess anti-VEGF-A inhibitor and the high signal control was determined by buffer only.\nThe mechanism of action of lead aptamers was characterized by interrogating their ability to inhibit the VEGF-A:KDR interaction with both VEGF-A₁₆₅ and VEGF-A₁₂₁."}, "VEGF-A121 [3]": {"target": "T2, VEGF-A121 (Homo sapiens, UniProt P15692 SEQ:1-121)", "assay": "competition; AlphaLISA, blocks KDR binding", "conditions": "tags: glycan-biotinylated for SPR/FRET/AlphaLISA; Acro BioSystems, Biolegend; chain copies: 2 (stated); stem-loop"}, "VEGF-A110": {"target": "VEGF-A110 (Homo sapiens, UniProt P15692 SEQ:1-110)", "assay": "SPR; HEPES pH 7.4, 1 mM MgCl2, 1 mM CaCl2", "conditions": "tags: glycan-biotinylated; chain copies: 2 (stated); stem-loop", "experimental": "(§1) Aptamer 26 was identical in sequence to Aptamer 4.2 but contained a hexylamine linker in place of the C6 disulfide linker at the 5′ terminus. […] Briefly, in the SPR studies, 1.0-2.5 μg/mL of glycan biotinylated VEGF-A₁₆₅, VEGF-A₁₂₁, and VEGF-A₁₁₀ were diluted in HEPES running buffer (10 mM HEPES, 137.5 mM NaCl, 5.7 mM KCl, 1 mM MgCl₂, 1 mM CaCl₂, and 0.05% Tween20; pH 7.4) and immobilized to a streptavidin dextran chip (GE Healthcare Life Sciences) for 1-2 minutes. The chip was then blocked with 0.2 mg/mL biotin in running buffer, followed by 3 cycles of buffer blanks and regenerated with 50 mM NaOH to equilibrate the chip. […] After coating and blocking, samples were screened at 100 nM in duplicate injections at a flow rate of 25 μL/min, with an association time of 3 minutes 20 seconds and a dissociation time of 10 minutes. Regeneration conditions of chips were optimized based on the protein immobilized and effected with either 50 mM NaOH for 30 seconds or 2M guanidine HCl for 2×40 seconds.\n(§2) Data was fit to a 1:1 kinetic binding model."}, "VEGF-A121 [4]": {"target": "T2, VEGF-A121", "assay": "SPR; HEPES pH 7.4, 1 mM MgCl2, 1 mM CaCl2", "conditions": "tags: glycan-biotinylated for SPR/FRET/AlphaLISA; Acro BioSystems, Biolegend; chain copies: 2 (stated); stem-loop", "experimental": "as §1, §2"}, "VEGF-A121 [5]": {"target": "T2, VEGF-A121", "assay": "direct TR-FRET, RT; error not given", "conditions": "tags: glycan-biotinylated for SPR/FRET/AlphaLISA; Acro BioSystems, Biolegend; chain copies: 2 (stated); stem-loop", "experimental": "(§3) Briefly, ALEXA FLUOR® 647-labeled aptamers were heated to 90° C. for 3 minutes and cooled to room temperature. Titrations of ALEXA FLUOR® 647-labeled aptamers and ALEXA FLUOR® 647-labeled anti-VEGF-A antibody were made in TR-FRET buffer (50 mM MOPS, pH 7.4, 125 mM NaCl, 5 mM KCl, 50 μM CHAPS, 0.1 mg/mL BSA, 1 mM CaCl₂, and 1 mM MgCl₂) in a polypropylene plate. 5 μL of aptamers or antibody were transferred to the black wall low volume 384 well assay plate (Greiner), followed by 5 μL glycan biotinylated VEGF-A₁₂₁ (2.5 nM final), and 5 μL Streptavidin-Eu (Perkin Elmer; 2.5 nM final). The plate was covered with a plate seal and subsequently incubated in the dark for 2 hours at room temperature. The plate was read on a Biotek CYTATION™ 5 plate reader. Samples were excited at 330 nm and fluorescent values were collected at 665 nm.\n(§4) No protein background fluorescent values were averaged and subtracted from test compounds, with data normalized as a fold change to highest concentrations of aptamers and antibody. These values were fit using a four-parameter non-linear fit in GraphPad Prism Version 7.0."}, "VEGF-A165 [6]": {"target": "T1, VEGF-A165", "assay": "SPR; HEPES pH 7.4, 137.5 mM NaCl, 1 mM MgCl2, 1 mM CaCl2", "conditions": "tags: glycan-biotinylated for SPR/FRET/AlphaLISA; Acro BioSystems, R&D Systems; chain copies: 2 (inferred); stem-loop", "experimental": "as §1, §2"}, "VEGF-A121 [7]": {"target": "T2, VEGF-A121", "assay": "direct TR-FRET, RT", "conditions": "tags: glycan-biotinylated for SPR/FRET/AlphaLISA; Acro BioSystems, Biolegend; chain copies: 2 (stated); stem-loop", "experimental": "as §3, §4"}, "VEGF-A165 [8]": {"target": "T1, VEGF-A165", "assay": "direct TR-FRET, RT; limited by VEGF-A concentration", "conditions": "tags: glycan-biotinylated for SPR/FRET/AlphaLISA; Acro BioSystems, R&D Systems; chain copies: 2 (inferred); stem-loop"}, "VEGF-A165 [9]": {"target": "T1, VEGF-A165", "assay": "competition; AlphaLISA, blocks KDR binding; limited by VEGF-A concentration", "conditions": "tags: glycan-biotinylated for SPR/FRET/AlphaLISA; Acro BioSystems, R&D Systems; chain copies: 2 (inferred); stem-loop"}}, "data": [{"binder": "B1", "values": [{"measurement": "Kd", "setting": "VEGF-A165 [1]", "value": 4, "unit": "nM"}, {"measurement": "IC50", "setting": "VEGF-A165 [2]", "value": 3.7, "unit": "nM"}, {"measurement": "IC50", "setting": "VEGF-A121 [3]", "value": 19, "unit": "nM"}, {"measurement": "Kd", "setting": "VEGF-A110", "value": 9.9, "unit": "nM"}, {"measurement": "Kd", "setting": "VEGF-A121 [4]", "value": 4.6, "unit": "nM"}, {"measurement": "Kd", "setting": "VEGF-A121 [5]", "value": 46, "unit": "nM"}, {"measurement": "Kd", "setting": "VEGF-A165 [6]", "value": 0.5, "unit": "nM"}]}, {"binder": "B2", "values": [{"measurement": "IC50", "setting": "VEGF-A121 [3]", "value": 3.2, "unit": "nM"}, {"measurement": "Kd", "setting": "VEGF-A121 [7]", "value": 4.3, "unit": "nM"}, {"measurement": "Kd", "setting": "VEGF-A165 [8]", "value": 1.2, "unit": "nM"}, {"measurement": "IC50", "setting": "VEGF-A165 [9]", "value": 0.81, "unit": "nM"}]}]}
